Measured values reported in the supplement of paper PMC9170038.

Assays:
Conditions in all cases: FMN input: 0 or 200 uM; Eterna round: R93 (includes R88 designs)
[1] = test system: MS2 coat protein; experiment: apparent KD of MS2 coat protein, switch ON state; designed switch direction (-1 OFF switch, 1 ON switch): 1; higher = weaker reporter binding
Outline: (§1)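 Designed RNA switches, transcribed on-chip from Illumina sequencing clusters, were titrated with SNAP-549-labelled MS2 coat protein from 0.7 or 1.5 nM to 3 µM in twofold steps. The solution was 100 mM Tris-HCl pH 7.5, 80 mM KCl, 4 mM MgCl2, with constant ligand or without it. Apparent KD is the median over each design's normalised cluster binding-curve fits.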

[2] = test system: MS2 coat protein; experiment: apparent KD of MS2 coat protein, switch OFF state (with FMN for OFF switches, without FMN for ON switches); designed switch direction (-1 OFF switch, 1 ON switch): 1; higher = weaker reporter binding
Outline: as §1

[3] = test system: MS2 coat protein; experiment: apparent KD of MS2 coat protein, switch ON state; designed switch direction (-1 OFF switch, 1 ON switch): -1; higher = weaker reporter binding
Outline: as §1

[4] = test system: MS2 coat protein; experiment: apparent KD of MS2 coat protein, switch OFF state (with FMN for OFF switches, without FMN for ON switches); designed switch direction (-1 OFF switch, 1 ON switch): -1; higher = weaker reporter binding
Outline: as §1

| Sequence | apparent KD of MS2 coat protein [1] | apparent KD of MS2 coat protein [2] | apparent KD of MS2 coat protein [3] | apparent KD of MS2 coat protein [4] |
| --- | --- | --- | --- | --- |
| AAAAAAAAAAGACAGGAUAUCCAAAAAAAAACAUGAGGAUCACCCAUGUAAAAAAAAAAAAAAUGGGAGAAGGGUCAAAAAAAAAA [Louisiana 5 - Jieux - Same State 2] | 0.0219 µM | 0.0365 µM |  |  |
| AAAAAAAAAAGGCAGGAUAUCCAAAAAAAAACAUGAGGAUCACCCAUGUAAAAAAAAAAAAAAUGGGAGAAGGGCCAAAAAAAAAA [Mat - Mod of Eli] | 0.0249 µM | 0.0463 µM |  |  |
| AAAAAACAUGAGGAUCACCCAUGUAAAAAAAACGCAGGAUAUCCCUUUUUUAAAUGGGAGGGAGAAGGGUGAAAAA [Nob's Hobby 13 - Jieux - Same State 1] | 0.0224 µM | 0.0438 µM |  |  |
| AAAAAACAUGAGGAUCACCCAUGUAAAAAAAUGGGAGGAUAUAUGAAAAAAAAAAAAAAAAUAGAAGGCCUGAAAA [same state 11] | 0.399 µM | 0.0642 µM |  |  |
| CUCUUGUCAGGAUAUUGAAGAAAAGAAGAGAAAGAAAAGAACAAGAAGGGACAUGAGGAUCACCCAUGUAAGAA [EteRNA is fun!] |  |  | 0.0618 µM | 0.0667 µM |
| CUCUUGUGAGGAUAUUGAAGAAAAGAAGAGAAAGAAAAGAACAAGAAGGCACAUGAGGAUCACCCAUGUAAGAA [EteRNA is fun!] |  |  | 0.0379 µM | 0.0442 µM |
| CUUGUGUGAGGAUAUGUAAAAUGAAUAAGCAGUUCUAAAAGGCAGAAGGUACAUGAGGAUCACCCAUGUGAAAA [Inza] |  |  | 0.0393 µM | 0.0498 µM |
| GAAAACAGAGGAUAUACAAAAUUGACACGAAAGGUGCAAAAACAUGAGGAUCACCCAUGUAGAAGGCUGAAGAA [Meechl MS2 Ex2 3] |  |  | 0.0253 µM | 0.0211 µM |
| GAAAACAGAGGAUAUACAUGAGGAUCACCCAUGUAAAAAUGUAGAAGGCUGAAAGAAAGAAGAAGGAAAGAAAA [Meechl Ex3 R2 m2] |  |  | 0.0242 µM | 0.0283 µM |
| GAAAAGCAAGGAUAUACAUGAGGAUCACCCAUGUGGAAUGGCGUGACCGAAAGAAAAGGUAGAAGGUGCACGUG [Ragetia] |  |  | 0.216 µM | 0.286 µM |
| GAAAAGUCAGGAUAUACAGAAAAAAAAACGAAAAAAAAUCUGUAGAAGGGACAUGAGGAUCACCCAUGUAAAAA [Mat - Exclusion 4 - Mayanna - D122] |  |  | 0.0514 µM | 0.0376 µM |
| GAAAAGUCAGGAUAUGCAGAAAAAAAAACGAAAAAAAAACUGCAGAAGGGACAUGAGGAUCACCCAUGUUAAAA [Mat - Exclusion 4 - Mayanna - D127] |  |  | 0.0415 µM | 0.0312 µM |
| GAAAAGUGAGGAUAUACAUGAGGAUCACCCAUGUGUAUAAAAAAAUACACAAAAGAAAGUAGAAGGCACUAAAG [Mat - Exclusion 3 - Mayanna mod - D110] |  |  | 0.0231 µM | 0.0487 µM |
| GAAAAGUGAGGAUAUUCGGAUAGGAAAACGAAAACCUAUCCGAAGAAGGCACAUGAGGAUCACCCAUGUGAAAG [Mat - Exaclusion 4 - Eli mod - D43] |  |  | 0.028 µM | 0.0309 µM |
| GAAAAUGGAGGAUAUACAUGAGGAUCACCCAUGUGUAAAAAAAAUUACACAAAAGAAAGUAGAAGGCCAUAAAA [Mat - Exclusion 3 - Mayanna mod - D107] |  |  | 0.0664 µM | 0.174 µM |
| GAAAGGUCAGGAUAUACGUUAUGCUAGUGCUCGUACUAUAAGUAGAAGGGACAUGAGGAUCACCCAUGUGAUAA [Kawasakiqro] |  |  | 0.0452 µM | 0.0583 µM |
| GAAGAACAUGAGGAUCACCCAUGUCAGGAUAUGCAGAAGGGAAUAAUAACCUCUGGAAGCAGAAGGGACAAGAA [Ex 1 May 48] |  |  | 0.0335 µM | 0.0594 µM |
| GAAGAACAUGAGGAUCACCCAUGUGAGGAUAUACAGAAUGGAAUAAAAUAACAAGAAAGUAGAAGGCACAAGAA [Ex 1 May 39] |  |  | 0.0321 µM | 0.0384 µM |
| GAGGAGUCAGGAUAUCGGGAAAGGUUGAGGAAGAGAAGAAGCGAGAAGGGACAUGAGGAUCACCCAUGUAGAAG [Default title] |  |  | 0.0467 µM | 0.0403 µM |
| GAGUAAGGAGGAUAUACAUGAGGAUCACCCAUGUAAAAAGGGAAAGUAGAAAAGUAGAGUAGAAGGCCUAUAGA [JR_Exc003_Sub1702] |  |  | 0.0704 µM | 0.0583 µM |
| GAUCAGCUAGGAUAUACAUUAAUCCGAUAUGAGAAGAAAGAACAUGAGGAUCACCCAUGUAGAAGGAGCCAGUA [Ridigeer] |  |  | 0.0402 µM | 0.0393 µM |
| GCAUGCGAAGGAUAUACAUGAGGAUCACCCAUGUGAGAGAAAAAAGUGAGAAAGAAAAGUAGAAGGUCGUGUGG [salish99-ex3-94] |  |  | 0.0407 µM | 0.0709 µM |

| Sequence | apparent KD of MS2 coat protein [1] | apparent KD of MS2 coat protein [2] | apparent KD of MS2 coat protein [3] | apparent KD of MS2 coat protein [4] |
| --- | --- | --- | --- | --- |
| GCUGUCGAAGGAUAUACAUGAGGAUCACCCAUGUGAGAGAAAAAAGUGAGAAAGAAAAGUAGAAGGUCGGUAGG [salish99-ex3-97] |  |  | 0.0296 µM | 0.0357 µM |
| GGAAAACAUGAGGAUCACCCAUGUAAGGAUAUGCAAAAAAAAAAAGGAUAUAGAAGGAGCAGAAGGUACAAAGG [salish99-ex1-29] |  |  | 0.0362 µM | 0.057 µM |
| GGAAAACAUGAGGAUCACCCAUGUAAGGAUAUGCAAAAAAGGAUAUAGAAGGAAAAAAGCAGAAGGUACAAAGG [salish99-ex1-23] |  |  | 0.0271 µM | 0.0698 µM |
| GGAAAGUCAGGAUAUGGAUAAUAAAUACAAAUAGAAACAAACCAGAAGGGACAUGAGGAUCACCCAUGUAAACA [Exclusion 4 Electric] |  |  | 0.0353 µM | 0.0226 µM |
| GGAAAGUGAGGAUAUGCAUAACAAACACAAACACAAACAAAGCAGAAGGCACAUGAGGAUCACCCAUGUAAACA [Exclusion 4 Willow] |  |  | 0.0235 µM | 0.0223 µM |
| GGUGGCGUAGGAUAUACAUGAGGAUCACCCAUGUGAGAGAAAAAAGUGAGAAAGAAAAGUAGAAGGACGUUACG [salish99-ex3-126] |  |  | 0.0403 µM | 0.147 µM |
| GGUUGGCGAGGAUAUACAUGAGGAUCACCCAUGUGAGAGAAAAUAGUGAGAAAGAAAAGUAGAAGGCGCUGACG [salish99-ex3-42] |  |  | 0.113 µM | 0.235 µM |
| GGUUGGCGAGGAUAUACAUGAGGAUCACCCAUGUGAGAGGAAAAAGUGAGGAGGAGAAGUAGAAGGCGCUGACG [salish99-ex3-22] |  |  | 0.0296 µM | 0.138 µM |
| GUAAACCUAGGAUAUACAUGAGGAUCACCCAUGUAAAAAAUAAUAAAAAGAAAAAAAAGUAGAAGGAGGUAGAU [JR_Exc003_Sub1226] |  |  | 0.0291 µM | 0.044 µM |
| GUAGUGUGAGGAUAUGGAUAGAAGAAGUGAAAGUAAGAGAACUAGAAGGCACAUGAGGAUCACCCAUGUAUGUG [JR_Exc004_Sub1701] |  |  | 0.0414 µM | 0.0533 µM |
| GUGUACAGAGGAUAUACGGGAGCUAGGAAACUAGCAACCUCACAUGAGGAUCACCCAUGUAGAAGGCUGUACAC [Ex2: 752] |  |  | 0.159 µM | 0.799 µM |
| UAAAAACAUGAGGAUCACCCAUGUGAGGAUAUGUACGAAAUAAAUAAAAAAUAAAAGUACAGAAGGCACAAAAU [Mat - Exclusion 1 - Eli mod - D6] |  |  | 0.037 µM | 0.0526 µM |
| UAAAGACAUGAGGAUCACCCAUGUGAGGAUAUAGGUGUAUGCAAAAAAAAGUUAAAAACUAGAAGGCACAGAAA [JR_Exc001_Sub305] |  |  | 0.066 µM | 0.0425 µM |
| UAAAGACAUGAGGAUCACCCAUGUGAGGAUAUCGGAGAUGACGGAACAUCGAGUUCGGCGAGAAGGCGCAGGAA [JR_Exc001_Sub407] |  |  | 0.0301 µM | 0.0292 µM |
| UACAGACAUGAGGAUCACCCAUGUGAGGAUAUUCAUAACGAUAUUACAAGUAUGACAGGAAGAAGGCACAGCAA [JR_Exc001_Sub010] |  |  | 0.045 µM | 0.0475 µM |
| UAUAACGAAGGAUAUACUAACGAAACUAAUGCAUAUAUAUAACAUGAGGAUCACCCAUGUAGAAGGUCGAGAAU [JR_Exc002_Sub011] |  |  | 0.0237 µM | 0.0288 µM |
| UAUAGACAUGAGGAUCACCCAUGUGAGGAUAUCGGUGACUACAGGACAUCACGUACAAUGAGAAGGCACAGAAA [JR_Exc001_Sub017] |  |  | 0.0403 µM | 0.0442 µM |
| UAUGAGCGAGGAUAUGCUUGGGACUGUCGGAAGGUGGCGGGACAUGAGGAUCACCCAUGUAGAAGGCGCGAGCG [Harteesian Tree] |  |  | 0.0598 µM | 0.0674 µM |
| UCCGGACAUGAGGAUCACCCAUGUGAGGAUAUAUAACGUGGGACUGGAAACAAUCCCAAUAGAAGGCACAUGAC [Reisatridi] |  |  | 0.0215 µM | 0.0202 µM |
| UCCUCACAUGAGGAUCACCCAUGUGAGGAUAUGUACAUCAGGAAAAAAAAACUGAUGUACAGAAGGCACAUGGA [Design 9: Super Stable G-C 2] |  |  | 0.0159 µM | 0.0112 µM |
| UUUAAGUCAGGAUAUUCGGAUAGGAAAACGAAAACCUAUCCGAAGAAGGGACAUGAGGAUCACCCAUGUAAAAA [Starry Exclusion 4.3 (cataway round 1 mod)] |  |  | 0.0521 µM | 0.0563 µM |
